{
  "source": "patent US20090232730A1",
  "about": "“METHOD OF PRODUCING IMMUNOLIPOSOMES AND COMPOSITIONS THEREOF” (IMMUNE DISEASE INSTITUTE, INC., priority 2006, published 2009)",
  "key": {"[1]": {"system": "CD4", "test": "CD4 silencing in human primary CD4+ cells by flow cytometry", "assay_type": "cell-based", "conditions": "formulated in immunomicelles, 30 pmol-1000 pmol", "description": "Human neutrophils or lymphocytes were isolated from freshly drawn blood as described (Carman et al. J. Immunology, 171 (2003) 6135-6144). CD4 blasts were generated by isolating CD4+ T cells from peripheral blood lymphocytes of normal donors by immunomagnetic beads (Miltenyi Biotech) as previously reported (Novina et al. Nature Med. 2002; 8(7): 681-6) and culturing them in RPMI 1640 containing 10% FCS for 3 days in the presence of 4 μg/mL phytohemagglutinin (PHA), then expend the cells with the same media (without PHA) but with IL-2 at 10 ng/mL for 3 more days.\nsiRNA transfections were preformed with different formulations of siRNA targeted against human CD4, siRNA-luciferase, or siRNA-cy3. As a positive control we used Fugene 6 and ExGen 500 (PEI) transfection reagents. Cells were seeded in 24 or 96 well plates at a density of 5000−2×10^5 cells/well. […]"}, "[2]": {"system": "K562 mock cells", "test": "MTT cytotoxicity assay", "assay_type": "cell-based, human", "conditions": "MMC formulations", "description": "K562 cells (either K562 mock cells or K562 Mac-1 cells, stably transfected with Mac-1 integrin) were grown in 1×RPMI supplemented with 10% FBS. Exponentially growing cells were seeded at 2.5×10^5/ml in 24-well plates and either left untreated or treated with graded dosages of free mitomycin (MMC) or equivalent doses of MMC formulated in liposomes. The treatment media was selected from the following MMC formulations: (i) the test system, MMC-loaded tHA-CBRM1/29, (ii) MMC-loaded ULV-HA, (iii) free MMC, (iv) free MMC dissolved in a suspension of empty tHA-CBRM1/29 and (v) free MMC dissolved in a suspension of empty ULV-HA. In addition, there were 3 drug-free controls, consisting of: (vi) no addition (i.e., only the serum-supplemented growth medium), (vii) empty tHA-CBRM1/29 and (viii) empty ULV. In all formulations, the solvent was serum-supplemented cell growth medium. Cells were washed twice with Hepes-buffered saline (HBS) then re-incubated with drug-free media for additional 48 hours. Cells were spun down and re-suspended in 0.5 ml of MTT containing medium (0.5 mg/ml), and incubated at 37° C. for 1 h. […] After 5 min at room temperature, samples were spun down and 250-μl aliquots were used for absorbance measurements. Cell viability was measured as the difference in the absorbance 550 and 620 nm. […] Data are expressed as a percent of the control healthy growing cells."}, "[3]": {"molecular_target": "integrin Mac-1 (αMβ2) (human) (UniProt P11215)", "test": "flow cytometry on K562 cells expressing Mac-1; carrier before lyophilization"}, "[4]": {"molecular_target": "integrin Mac-1 (αMβ2) (human) (UniProt P11215)", "test": "flow cytometry on K562 cells expressing Mac-1; carrier after lyophilization and reconstitution"}, "[5]": {"molecular_target": "integrin Mac-1 (αMβ2) (human) (UniProt P11215)", "test": "cell-based or functional assay"}, "[6]": {"molecular_target": "integrin Mac-1 (αMβ2) (human) (UniProt P11215)", "test": "flow cytometry on K562 cells expressing Mac-1; free antibody after lyophilization and reconstitution"}, "[7]": {"molecular_target": "integrin Mac-1 (αMβ2) (human) (UniProt P11215)", "test": "flow cytometry on K562 cells expressing Mac-1; free antibody before lyophilization"}, "[8]": {"molecular_target": "integrin Mac-1 (αMβ2) (human) (UniProt P11215)", "test": "flow cytometry on K562 cells expressing Mac-1; carrier after lyophilization and reconstitution (no cryoprotectant)"}},
  "note": "{P} = phosphate",
  "data": [
    {"compound": "CD4-siRNA: siRNA targeted against human CD4, sense 5′-P.GAUCAAGAGACUCCUCAGUUU-3′, antisense 5′-P.ACUGAGGAGUCUCUUGAUCUU-3′ (RNA, 5' {P}, backbone not given here)", "values": [
      {"measurement": "plateau of CD4 silencing dose response curve", "setting": "[1]", "value": 500, "unit": "pmol"}
    ]},
    {"compound": "CO[C@@]12[C@H](COC(N)=O)C3=C(C(=O)C(C)=C(N)C3=O)N1C[C@@H]1N[C@@H]12", "note": "[free MMC, mitomycin C]", "values": [
      {"measurement": "cell survival", "setting": "[2]", "value": "no significant changes in the cell survival"}
    ]},
    {"compound": "tHA-CBRM1/29-cy3 (antibody)", "values": [
      {"measurement": "MFI", "setting": "[3]", "value": 161},
      {"measurement": "MFI", "setting": "[4]", "value": 172},
      {"measurement": "IC50 (MTT cytotoxicity assay, MMC entrapped in the carrier, K562 cells expressing Mac-1)", "setting": "[5]", "value": 1750, "unit": "nM"},
      {"measurement": "fold difference of IC50 against ULV-HA (no antibody), MTT cytotoxicity assay on K562 cells expressing Mac-1", "setting": "[5]", "value": 100, "unit": "fold"}
    ]},
    {"compound": "CBRM1/29-cy3 (antibody)", "values": [
      {"measurement": "MFI", "setting": "[6]", "value": 73},
      {"measurement": "MFI", "setting": "[7]", "value": 82}
    ]},
    {"compound": "ULV-CBRM1/29-cy3 (antibody)", "values": [
      {"measurement": "mean fluorescence intensity", "setting": "[3]", "value": 175},
      {"measurement": "mean fluorescence intensity", "setting": "[8]", "value": 5.6}
    ]}
  ]
}
